Experimental findings from patent publication US20170362324A1 (Biogen, published 2017) are described below.

Where a chain is given by its changes, count along the chain named. Numbers in names are those of the source.

B1: VH4/VL2 Fab fragment (Fab, V domains shown)
VH: EVQVVQSGGGLVKPGESLRLSCKASGYTFTSYWMHWVKQAPGKGLEWVGAIYPGNSDTSYNQKFKGKFTISADTSPNTAYLQMNSLKTEDTAVYYCTTTTYGYDWFAYWGQGTLVTVSS
VL: NIQMTQSPSSLSASVGDRVTMSCKSSQSVLYSSNQKNYLAWYQQKPGKSPKLLIYWASTRESGVPDRFTGSGSGTDFTLTISSLQPEDFATYYCHQYLSSLTFGQGTKLEIK
notes: also called H4/L2 (Fab source); H4L2 hIgG1 Fab
B2: ALULA-H4/L2-IgG4.P(S228P)/IgG1(N297Q) (antibody, V domains shown)
VH: B1 VH
VL: NIQMTQSPSSLSASVGDRVTMSCKSSQSVLYSSNQKNYLAWYQQKPGKSPKLLIYWASTRESGVPDRFTGSGSGTDFTLTISSLQPEDFATYYCHQYLSSLTFGQGTKLEIKR
notes: Hybrid aglycosylated IgG4.P (S228P)/IgG1 (N297Q) heavy chain, human kappa light chain; also called VH4/VL2 (Agly-IgG4P/G1); H4/L2 antibody
B3: Mouse chimeric ALULA (murine ALULA variable domains fused to human IgG1 heavy chain and human kappa light chain domains) (antibody, V domains shown)
VH: EVQVQQSGTVLARPGASVKMSCKASGYTFTSYWMHWVKQRPGQGLEWIGAIYPGNSDTSYNQKFKGKAKLTAVTSPNTAYMELSSLTNEDSAVYYCTTTTYGYDWFAYWGQGTLVTVSA
VL: NIMMTQSPSSLTVSAGEKVTMSCKSSQSVLYSSNQKNYLAWYQQKPGQSPKLLIYWASTRESGVPDRFTGSGSGTDFTLTISSVQAEDLAVYYCHQYLSSLTFGAGTKLELK
notes: also called chimeric form of ALULA; chimeric murine antibody
B4: VH2/VL2 Agly-IgG4.P (S228P)/IgG1 (N297Q) (antibody, V domains shown)
VH: B1 VH with K23A, P76S
VL: B2 VL
notes: also called VH2/VL2 (Agly-IgG4P/G1); H2/L2
B5: VH4/VL0 Agly-IgG4.P (S228P)/IgG1 (N297Q) (antibody, V domains shown)
VH: B1 VH
VL: B2 VL with N1D, L11V, M21I, S22T, S49A, D66S, T69S, L109V
notes: also called VH4/VL0 (Agly-IgG4P/G1); H4/L0
B6: VH5/VL2 Agly-IgG4.P (S228P)/IgG1 (N297Q) (antibody, V domains shown)
VH: B1 VH with V5Q, E16G, F68A, I70L, D73V
VL: B2 VL
notes: also called VH5/VL2 (Agly-IgG4P/G1); H5/L2

The target of one assay is T1, human αvβ5 expressed on BaF3 cells (stably transfected with human αv and β5 subunits) (human, UniProt P06756 31-1048; P18084 24-799).
T1 construct: also called αvβ5-BaF3; BaF3-hu αvβ5
T1 sequence (P06756 31-1048 limits assumed, chain 1 of 2): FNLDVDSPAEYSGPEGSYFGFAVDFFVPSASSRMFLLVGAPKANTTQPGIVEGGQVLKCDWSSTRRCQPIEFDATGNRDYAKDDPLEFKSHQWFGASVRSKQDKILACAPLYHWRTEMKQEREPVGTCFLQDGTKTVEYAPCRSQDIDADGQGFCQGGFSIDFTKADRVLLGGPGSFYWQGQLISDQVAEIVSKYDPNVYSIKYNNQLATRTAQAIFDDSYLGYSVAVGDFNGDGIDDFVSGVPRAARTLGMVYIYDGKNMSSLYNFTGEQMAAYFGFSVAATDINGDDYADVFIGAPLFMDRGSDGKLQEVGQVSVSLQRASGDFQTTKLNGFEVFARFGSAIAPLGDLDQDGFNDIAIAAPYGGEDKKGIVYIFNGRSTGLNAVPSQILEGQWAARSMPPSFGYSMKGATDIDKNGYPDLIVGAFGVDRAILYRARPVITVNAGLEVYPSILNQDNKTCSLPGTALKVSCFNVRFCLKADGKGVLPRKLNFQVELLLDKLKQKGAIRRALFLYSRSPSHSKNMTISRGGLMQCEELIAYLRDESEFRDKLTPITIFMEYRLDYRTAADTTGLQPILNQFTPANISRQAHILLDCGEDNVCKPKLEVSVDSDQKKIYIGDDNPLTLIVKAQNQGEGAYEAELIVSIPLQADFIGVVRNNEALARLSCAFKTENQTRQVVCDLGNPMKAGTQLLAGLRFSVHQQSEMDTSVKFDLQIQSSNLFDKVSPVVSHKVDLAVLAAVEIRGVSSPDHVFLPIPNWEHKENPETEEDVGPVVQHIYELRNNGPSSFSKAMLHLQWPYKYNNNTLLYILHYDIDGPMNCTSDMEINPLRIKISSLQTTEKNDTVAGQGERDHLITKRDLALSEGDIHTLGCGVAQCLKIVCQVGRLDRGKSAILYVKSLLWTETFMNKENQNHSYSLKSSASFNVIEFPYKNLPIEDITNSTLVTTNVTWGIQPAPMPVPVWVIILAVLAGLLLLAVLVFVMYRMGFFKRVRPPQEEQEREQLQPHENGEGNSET
T1 sequence (P18084 24-799 limits assumed, chain 2 of 2): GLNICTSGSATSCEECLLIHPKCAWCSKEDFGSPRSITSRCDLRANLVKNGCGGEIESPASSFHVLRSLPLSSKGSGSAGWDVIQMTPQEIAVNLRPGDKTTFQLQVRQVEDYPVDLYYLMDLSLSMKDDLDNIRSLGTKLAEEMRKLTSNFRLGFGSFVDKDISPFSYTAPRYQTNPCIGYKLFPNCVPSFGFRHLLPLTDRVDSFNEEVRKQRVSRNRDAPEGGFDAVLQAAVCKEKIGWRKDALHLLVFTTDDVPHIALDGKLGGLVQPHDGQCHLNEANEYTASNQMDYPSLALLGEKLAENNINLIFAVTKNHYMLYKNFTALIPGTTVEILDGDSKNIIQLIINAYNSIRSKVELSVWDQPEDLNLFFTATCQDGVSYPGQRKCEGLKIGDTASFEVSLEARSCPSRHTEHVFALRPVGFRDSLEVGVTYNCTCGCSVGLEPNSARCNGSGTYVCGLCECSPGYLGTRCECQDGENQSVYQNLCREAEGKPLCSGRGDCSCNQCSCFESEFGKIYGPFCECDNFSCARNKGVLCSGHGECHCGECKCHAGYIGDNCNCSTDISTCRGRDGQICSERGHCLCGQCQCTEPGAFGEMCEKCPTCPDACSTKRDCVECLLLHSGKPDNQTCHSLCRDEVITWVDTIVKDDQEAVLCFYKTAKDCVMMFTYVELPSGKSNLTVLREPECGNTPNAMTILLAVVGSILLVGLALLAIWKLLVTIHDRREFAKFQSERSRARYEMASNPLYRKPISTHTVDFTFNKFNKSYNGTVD
The assay is described as follows: FACS binding curves on αvβ5-BaF3 cells, 10,000 cells/experiment; monovalent Fab, not mAb. On the procedure:
(§1) This experiment was carried out to confirm the affinity of ALULA-H4/L2-IgG4.P(S228P)/IgG1(N297Q) for cell surface expressed αvβ5 stably expressed on murine BaF3 cells. Binding curves were generated using a lower number of cells to ensure that antibody was not simply titrating the receptors on the cell.
B1 displayed a Kd of 0.42 nM.

In a further assay the target is T1, human αvβ5 expressed on BaF3 cells …. Briefly: flow cytometry on BaF3 cells co-transfected with human αv and human β5. On the procedure:
The binding of the H4/L2 antibody (SEQ ID NOs.: 69 and 70) to αvβ5 expressed on the cell surface was determined using flow cytometry on BaF3 cells stably co-transfected with human αv and human β5 integrin subunits. BaF3 cells are a murine IL-3 dependent hematopoietic cell line of indeterminate origin. These cells endogenously express mouse alpha-V (as well as alpha-4, alpha-5, and beta-1 integrins) but no beta-5 or beta-6 integrin.
The H4/L2 antibody was added to cells in FACS Buffer (PBS, 1% BSA, 1 mM CaCl₂, 1 mM MgCl₂) for 30 minutes on ice. After washing, bound antibody was detected with an anti-human-Alexa Fluor® 488 secondary antibody. Cells fixed in 1% paraformaldehyde were collected on a FACS Calibur and mean fluorescence intensity was analyzed using FlowJo software.
(In general: A flow cytometer gives signals particle by particle.)
In the case of B2, the midpoint of the response, the EC50, lay at 3 nM.

A further assay deals with T2, human soluble αvβ5 protein (extracellular domains of human αv and β5 integrin subunits) (human, UniProt P06756 31-992; P18084 24-719).
T2 construct: also called biotin-αvβ5; hsαvβ5
T2 sequence (P06756 31-992 limits assumed, chain 1 of 2): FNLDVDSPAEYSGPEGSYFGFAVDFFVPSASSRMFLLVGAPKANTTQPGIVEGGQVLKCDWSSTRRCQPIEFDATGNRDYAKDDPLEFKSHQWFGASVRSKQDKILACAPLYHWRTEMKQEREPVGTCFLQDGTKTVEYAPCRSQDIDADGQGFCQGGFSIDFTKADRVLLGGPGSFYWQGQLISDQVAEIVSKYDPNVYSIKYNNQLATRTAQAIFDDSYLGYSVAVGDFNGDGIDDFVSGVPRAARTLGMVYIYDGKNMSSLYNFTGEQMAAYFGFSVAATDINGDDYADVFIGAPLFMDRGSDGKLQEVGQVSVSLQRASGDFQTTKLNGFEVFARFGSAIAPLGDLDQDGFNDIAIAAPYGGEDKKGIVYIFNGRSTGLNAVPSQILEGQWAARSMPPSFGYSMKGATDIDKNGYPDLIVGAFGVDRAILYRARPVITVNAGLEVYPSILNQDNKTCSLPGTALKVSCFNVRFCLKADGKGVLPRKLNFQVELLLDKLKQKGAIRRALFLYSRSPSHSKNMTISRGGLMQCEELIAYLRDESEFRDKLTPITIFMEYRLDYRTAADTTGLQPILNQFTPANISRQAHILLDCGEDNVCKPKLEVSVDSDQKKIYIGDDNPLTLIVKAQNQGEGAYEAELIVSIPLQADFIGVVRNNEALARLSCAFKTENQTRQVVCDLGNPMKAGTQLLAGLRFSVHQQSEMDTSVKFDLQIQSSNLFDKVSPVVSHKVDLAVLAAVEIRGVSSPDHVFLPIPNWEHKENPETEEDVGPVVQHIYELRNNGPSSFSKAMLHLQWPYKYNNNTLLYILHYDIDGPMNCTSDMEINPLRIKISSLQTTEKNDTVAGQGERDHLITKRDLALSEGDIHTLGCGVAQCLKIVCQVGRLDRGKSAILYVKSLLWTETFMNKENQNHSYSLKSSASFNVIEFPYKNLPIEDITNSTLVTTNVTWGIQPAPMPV
T2 sequence (P18084 24-719 limits assumed, chain 2 of 2): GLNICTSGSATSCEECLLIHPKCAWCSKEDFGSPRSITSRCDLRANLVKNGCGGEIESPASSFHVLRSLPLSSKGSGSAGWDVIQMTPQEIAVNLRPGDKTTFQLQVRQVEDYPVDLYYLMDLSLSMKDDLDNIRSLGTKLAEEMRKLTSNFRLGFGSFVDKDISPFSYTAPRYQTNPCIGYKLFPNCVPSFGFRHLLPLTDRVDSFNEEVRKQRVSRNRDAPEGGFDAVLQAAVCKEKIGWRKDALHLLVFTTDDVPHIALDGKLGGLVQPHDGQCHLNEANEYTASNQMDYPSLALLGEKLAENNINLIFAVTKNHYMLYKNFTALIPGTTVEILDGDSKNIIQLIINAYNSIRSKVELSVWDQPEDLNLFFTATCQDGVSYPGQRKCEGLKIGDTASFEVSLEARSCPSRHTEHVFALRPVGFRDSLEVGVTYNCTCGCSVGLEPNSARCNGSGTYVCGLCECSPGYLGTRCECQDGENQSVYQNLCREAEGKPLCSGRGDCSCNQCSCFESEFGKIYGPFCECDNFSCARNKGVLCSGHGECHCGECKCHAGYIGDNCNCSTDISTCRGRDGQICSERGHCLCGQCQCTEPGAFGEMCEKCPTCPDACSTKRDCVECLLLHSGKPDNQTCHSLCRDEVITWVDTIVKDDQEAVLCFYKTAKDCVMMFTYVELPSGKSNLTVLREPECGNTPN
The assay is described as follows: αvβ5-vitronectin blocking ELISA. Here is the method: Vitronectin Inhibition ELISA: 96-well microtiter plates were coated with 5 μg/ml purified human plasma vitronectin diluted in PBS (50 μl/well) at 4° C. overnight. After the coating solution was removed, the plates were blocked with 300 μl/well of 1% BSA/TBS at 25° C. for 1 hr. The plate was washed with wash buffer (0.05% Tween-20 in TBS containing 1 mM CaCl₂ and 1 mM MgCl₂), and dilutions of humanized antibodies mixed with 1 nM soluble αvβ5 protein in TBS containing 1% BSA, 1 mM CaCl₂ and 1 mM MgCl₂ were added (50 μl/well) and incubated at 25° C. for 1 hr. The plate was washed 4 times with wash buffer in an automated plate washer and incubated sequentially with 50 μl/well of the anti-beta5 monoclonal antibody 15F11 (at 0.5 ug/mL) in for 1 hr at 25° C. in TBS containing 1% BSA, 1 mM CaCl₂ and 1 mM MgCl₂. After washing the plate 4 times with wash buffer, 100 μl/well of a 1:5000 dilution of a peroxidase-conjugated goat anti-mouse antibody in TBS containing 1% BSA, 1 mM CaCl₂ and 1 mM MgCl₂ were added and incubated for 1 hr at 25° C. Bound protein was detected using the TMB substrate and indicated by the absorbency measured at 450 nm.
(§2) Based on the results described above in Example 4, four humanized ALULA constructs: VH2/VL2, VH4/VL0, VH4/VL2, and VH5/VL2, were selected for further testing. These VH/VL constructs were expressed as fusion proteins with the hybrid, aglycosylated IgG4.P (S228P)/IgG1 (N297Q) domain, and human kappa light chain domain, and purified from the conditioned medium of stably transfected CHO cells. Each humanized ALULA construct was assessed for binding using competition ELISA with murine ALULA and by FACS using human αvβ5-transfected BaF3 cells. Each humanized ALULA construct was also assessed for blocking binding/adhesion to vitronectin by ELISA or cell adhesion assays using BaF3 cells stably transfected with human or cynomolgous monkey αvβ5. The humanized ALULA constructs were compared to a chimeric form of ALULA comprising the murine heavy and light chain variable domains fused to human IgG1 heavy chain and human kappa light chain domains. The four humanized ALULA constructs behaved similarly in the assays, with H4/L2 generally having similar or slightly higher affinity/blocking potency than the other constructs (see, Table 3).
For orientation: ELISA stands for enzyme-linked immunosorbent assay.
As to B3, half-maximal inhibition (IC50) required 1.6 nM.

On to B2, for which the “Fold chg. (IC50 against mouse chimeric ALULA)” value is 0.7 fold and the IC50 (usually the concentration that inhibits the measured activity by half) turned out to be 1.06 nM.

Regarding B4, the “Fold chg. (IC50 against mouse chimeric ALULA)” value is 1.1 fold and the IC50 came out at 1.74 nM.

B5: the “Fold chg. (IC50 against mouse chimeric ALULA)” value amounted to 1 fold and the IC50 worked out at 1.52 nM.

Turning to B6, the “Fold chg. (IC50 against mouse chimeric ALULA)” value was found to be 0.8 fold and the IC50 was determined as 1.24 nM.

For the next assay, the target named is T1, human αvβ5 expressed on BaF3 cells …. The assay is described as follows: FACS binding curves on αvβ5-BaF3 cells, 10,000 cells/experiment; mAb (bivalent IgG). Here is the method: as §1
The molecule B2 had a Kd of 0.08 nM.

For a further assay, the target named is T2, human soluble αvβ5 protein …. Briefly: ALULA competition ELISA on soluble human αvβ5. Here is the method: Competition ELISA: A 96-well microtiter plate was coated with 50 μl/well of 5 μg/mL soluble human αvβ5 protein at 4° C. overnight. The plate was washed with wash buffer (0.05% Tween-20 in PBS) four times in an automated plate washer. 300 μl/well of 1% BSA in PBS was added and incubated for 1 hr at 25° C. to block nonspecific binding. The plate was washed as above, and dilutions of humanized antibodies mixed with 1 nM murine ALULA in PBS containing 1% BSA, were added (50 μl/well). The plate was incubated for 1 hr at 25° C., washed, and then incubated for 40 minutes with 100 μl/well of […] goat anti-mouse antibody. Bound antibody was detected using 3,3′,5,5′-tetramethylbenzidine (TMB). Binding was indicated by the absorbency measured at 450 nm.
as §2
In turn, B3 yielded an IC50 of 1.81 nM.

With B2, the “Fold chg. (IC50 against mouse chimeric ALULA)” value was 1 fold and the IC50 came out at 1.84 nM.

In the case of B4, the “Fold chg. (IC50 against mouse chimeric ALULA)” value was 1.4 fold and the IC50 stood at 2.61 nM.

As to B5, the “Fold chg. (IC50 against mouse chimeric ALULA)” value was 1 fold and the IC50 came to 1.84 nM.

In the case of B6, the “Fold chg. (IC50 against mouse chimeric ALULA)” value turned out to be 1 fold and the IC50 came out at 1.85 nM.

Another assay shares this target. The assay is described as follows: ELISA, Fab blocking of 2 nM soluble αvβ5 binding to immobilized human plasma vitronectin. On the procedure: Fab fragments of the four constructs of Example 6 were generated from the corresponding IgG1(N297Q) versions by digestion with papain. The ability of each Fab to block 2 nM soluble αvβ5 binding to immobilized human plasma vitronectin was determined by ELISA.
B1: the “Fold change (IC50 against mouse chimeric ALULA)” value worked out at 0.9 fold and the IC50 came to 4.3 nM.

For a further assay, the target named is T1, human αvβ5 expressed on BaF3 cells …. Briefly: FACS on BaF3-hu αvβ5 cells. On the procedure: FACS Binding Assay: Cells were washed one time in PBS, and then resuspended in FACS buffer (1×PBS, 1% BSA, 1 mM CaCl₂, and 1 mM MgCl₂). 1×10⁶ cells were then incubated on ice for 1 hr in FACS buffer containing the test antibody in a total volume of 50 μl. After incubation, the cells were washed two times with ice cold FACS buffer, resuspended in 50 μl of FACS buffer containing 3 μg/ml goat anti-mouse IgG AlexaFluor488 (Jackson ImmunoResearch), and incubated on ice for 30 min. The cells were then washed twice with ice cold FACS buffer and fixed in 1% PFA overnight. Cell aggregates were removed by filtering through 40 μm filter plates (Millipore) and binding of the labeled secondary antibody was monitored by flow cytometry using a FACS Calibur (BD Biosciences).
as §2
On to B3, for which a half-maximal effect (EC50) was put at 5.06 nM.

With B2, the EC50 (in general, the concentration giving half of the maximal effect) was 2.92 nM and the “Fold chg. (EC50 against mouse chimeric ALULA)” value amounted to 0.6 fold.

On to B4, for which the EC50 is 5.73 nM and the “Fold chg. (EC50 against mouse chimeric ALULA)” value worked out at 1.1 fold.

As to B5, a half-maximal effect (EC50) was put at 2.52 nM and the “Fold chg. (EC50 against mouse chimeric ALULA)” value was found to be 0.5 fold.

In the case of B6, the midpoint of the response, the EC50, lay at 2.9 nM and the “Fold chg. (EC50 against mouse chimeric ALULA)” value was 0.5 fold.

Another assay addresses T2, human soluble αvβ5 protein …. The assay is described as follows: ELISA, purified hsαvβ5 coated at 2 µg/mL, anti-human IgG-HRP detection. Here is the method: Purified hsαvβ5 protein was coated directly on a 96-well ELISA plate at 2 μg/mL, and H4/L2 antibody binding was detected using a horseradish peroxidase conjugated donkey anti-human IgG polyclonal antibody. In this format, the EC₅₀ of the H4/L2 antibody for αvβ5 was about 65 pM.
As to B2, the EC50 is ~0.065 nM.

The next assay concerns the target cynomolgus monkey αvβ5 expressed on BaF3 cells (cynomolgus monkey, UniProt A0A2K5WCD3 31-1048; A0A2K5UEB4 24-799). The assay is described as follows: cell-based or functional assay.
In the case of B3, the “BaF3-cyno αvβ5 Cell adhesion to vitronectin (IC50, nM)” value was 0.61 nM.

Take B2: the “BaF3-cyno αvβ5 Cell adhesion to vitronectin (IC50, nM)” value was determined as 0.32 nM and the “BaF3-cyno αvβ5 Cell adhesion to vitronectin, Fold chg. (against mouse chimeric ALULA)” value was determined as 0.5 fold.

With B4, the “BaF3-cyno αvβ5 Cell adhesion to vitronectin (IC50, nM)” value stood at 0.61 nM and the “BaF3-cyno αvβ5 Cell adhesion to vitronectin, Fold chg. (against mouse chimeric ALULA)” value stood at 1 fold.

In the case of B5, the “BaF3-cyno αvβ5 Cell adhesion to vitronectin (IC50, nM)” value amounted to 0.43 nM and the “BaF3-cyno αvβ5 Cell adhesion to vitronectin, Fold chg. (against mouse chimeric ALULA)” value is 0.7 fold.

Take B6: the “BaF3-cyno αvβ5 Cell adhesion to vitronectin (IC50, nM)” value turned out to be 0.63 nM and the “BaF3-cyno αvβ5 Cell adhesion to vitronectin, Fold chg. (against mouse chimeric ALULA)” value worked out at 1 fold.

For the next assay, the target named is T1, human αvβ5 expressed on BaF3 cells …. The assay is described as follows: cell-based or functional assay.
Consider B3, for which the “BaF3-hu αvβ5 Cell adhesion to vitronectin (IC50, nM)” value amounted to 0.17 nM.

Regarding B2, the “BaF3-hu αvβ5 Cell adhesion to vitronectin (IC50, nM)” value came out at 0.1 nM and the “BaF3-hu αvβ5 Cell adhesion to vitronectin, Fold chg. (against mouse chimeric ALULA)” value was determined as 0.6 fold.

As for B4, the “BaF3-hu αvβ5 Cell adhesion to vitronectin (IC50, nM)” value was determined as 0.3 nM and the “BaF3-hu αvβ5 Cell adhesion to vitronectin, Fold chg. (against mouse chimeric ALULA)” value was 1.8 fold.

Turning to B5, the “BaF3-hu αvβ5 Cell adhesion to vitronectin (IC50, nM)” value was found to be 0.09 nM and the “BaF3-hu αvβ5 Cell adhesion to vitronectin, Fold chg. (against mouse chimeric ALULA)” value came out at 0.5 fold.

For the molecule B6, the “BaF3-hu αvβ5 Cell adhesion to vitronectin (IC50, nM)” value worked out at 0.29 nM and the “BaF3-hu αvβ5 Cell adhesion to vitronectin, Fold chg. (against mouse chimeric ALULA)” value turned out to be 1.7 fold.
